Laboratory results: the supplement of paper PMC10567573

B1: TFE3 (parent)
chain: FHLGLEDILMEEEEGVVGGLSGGA
B2: LOC100129726 (parent)
chain: AKAADSPTRNDLESGLGHFSLRVH

Variants of: B1
Experiment: protein stability index of a GFP-peptide fusion (GPS, HEK-293T) (PSI 1-6); higher = more stable
Details: c terminus: a fixed tail appended
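Also: lentivirally expressed fusions sorted by FACS into six bins by GFP to DsRed ratio, PSI derived from sequencing read proportions per bin multiplied by bin number.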

Protein stability index: each site, then its substitutions
G18: C 3.76 | D 4.06 | E 4.1 | F 2.77 | H 3.66 | I 3.35 | K 2.99 | L 3.3 | M 3.6 | N 3.77 | P 3.85 | Q 4.23 | R 3.72 | S 3.27 | T 3.5 | V 3.93 | W 3.06 | Y 3.23
G19: A 3.97 | C 3.43 | D 4.69 | E 4.32 | F 2.69 | H 3.47 | I 2.87 | K 3.34 | L 3.25 | M 3.71 | N 3.84 | P 3.52 | Q 4.09 | R 3.54 | S 3.28 | T 3.48 | V 3.22 | W 2.18 | Y 2.67
L20: A 4.74 | C 3.91 | D 4.92 | E 4.99 | F 4.09 | G 3.98 | H 4.24 | I 4.08 | K 4.55 | M 3.19 | N 4.59 | P 3.79 | Q 4.47 | R 3.99 | S 4.52 | T 4.11 | V 4.69 | W 3.02 | Y 3.41
S21: A 3.9 | C 3.48 | D 3.95 | E 4.65 | G 4.07 | H 3.44 | I 3.27 | K 3.48 | L 3.01 | M 3.54 | N 3.6 | P 3.35 | Q 4.07 | R 3.7 | T 3.54 | V 3.81 | W 2.3 | Y 2.77
G22: A 3.81 | C 3.3 | D 3.5 | E 4.01 | F 3.34 | H 3.8 | I 3.19 | K 4.05 | L 3.31 | M 3.59 | N 3.72 | P 3.64 | Q 3.67 | R 3.39 | S 3.57 | T 4.26 | V 3.9 | W 2.85 | Y 2.28
G23: A 3.37 | C 3.21 | D 4.04 | E 4.87 | F 2.7 | H 3.43 | I 3.17 | K 3.89 | L 3.58 | M 3.19 | N 3.96 | P 4 | Q 3.89 | R 3.29 | S 3.52 | T 3.56 | V 3.98 | W 2.15
A24: C 3.73 | D 4.17 | E 3.9 | F 2.39 | G 4.32 | H 3.25 | I 2.66 | K 3.98 | L 2.94 | M 3.12 | N 3.65 | P 3.07 | Q 4.24 | R 3.86 | S 3.82 | T 3.52 | V 3.74 | W 1.75 | Y 2.68

Variants of: B2
Experiment: as above
Details: c terminus: a fixed tail appended

Protein stability index, by site and new letter:
G15: M 2.23 | V 2.48 | K 2.93 | P 2.79 | Q 3.81 | C 2.18 | E 2.82 | N 2.82
S14: I 2.38 | C 2.34 | N 3.68 | L 2.57 | R 2.78 | D 3.85 | G 2.9 | P 2.85 | A 3.28 | M 2.5 | F 2.25 | E 3.81
N10: S 3.17 | V 2.56 | G 2.77 | T 2.79 | W 1.88 | D 3.61 | C 2.13 | M 2.51 | A 3.06
E13: K 2.08 | N 2.63 | C 2.31 | F 2.19 | G 2.02 | S 2.8 | P 2.57
T8: Y 2.75 | P 3.38 | M 2.12 | Q 3.1 | N 3.36 | F 2.35
A3: E 3.8 | K 3.23 | N 2.97 | D 3.44 | L 2.6 | S 3.49 | F 2.77 | T 2.58 | P 3.04 | M 2.27 | V 2.28 | R 3.58
L16: N 3.67 | H 3.44 | P 3.12 | M 3.26 | I 3.71 | F 2.57 | A 3.97 | G 3.58 | Y 2.84 | R 3.78
A4: E 4.12 | W 2.16 | P 3.06 | Y 2.42 | K 3.09 | N 3.04 | T 3.7 | D 3.87 | M 2.54 | L 2.95 | F 2.31 | Q 3.15 | G 2.86
D5: G 2.9 | A 2.84 | C 2.34 | Y 2.3 | H 2.63 | N 2.81 | S 3.07 | T 2.61 | F 2.17
S6: T 3.39 | M 2.16 | G 2.72 | C 2.71 | V 2.77 | K 2.98 | W 1.92 | N 3.58
H18: R 3.08 | T 3.05 | N 3.53 | A 3.25 | S 3.73 | C 3.2 | V 2.73
S20: M 2.87 | G 3.11 | R 2.19 | K 3.4 | H 3.35 | E 3.72 | N 3.45 | C 2.45 | Y 1.58
R22: E 3.92 | D 4.28 | G 3.5 | A 3.47 | L 2.7 | W 2.4 | I 2.61 | C 2.27 | S 2.98 | K 3.59
L12: V 3.62 | R 3.76 | H 3.57 | P 3.51 | S 4.46 | I 3
V23: W 2.14 | F 2.14 | T 3.49 | R 4.03 | C 3.45 | H 3.55 | Q 3.58
G17: D 3.82 | R 2.89 | L 1.65 | Y 2.37 | H 2.57 | F 2.08 | V 3.13 | K 2.89 | A 2.84
L21: S 4.39 | V 3.84 | W 3.45 | H 3.55 | F 2.38 | G 4.79
A1: K 3.34 | C 2.1 | T 3.25 | Q 3.38 | Y 3.34 | V 3.39 | G 3.1 | I 2.48 | S 3.36 | D 3.88
P7: S 2.81 | I 2.75 | Q 3.41 | G 2.77 | N 3.27 | L 3.09
K2: M 2.78 | V 3.18 | F 2.42 | H 3.38 | R 3.38 | C 2.05 | N 2.88 | P 3.23 | Y 2.49
R9: E 3.95 | L 2.73 | P 3.07 | D 3.64 | F 2.4 | V 2.71 | H 3.56
D11: Y 2.25 | Q 2.8 | P 2.35 | W 2.56 | T 2.3 | R 2.54 | M 2.19 | F 2.75 | N 2.47
F19: N 4.24 | P 4.33 | L 3.31 | M 3.69 | V 3.58 | T 4.66 | W 2.76 | E 4.6
H24: A 2.92 | K 3.92 | V 2.61 | E 3.75 | W 2.09 | M 2.25 | G 2.64
